In the RNAGym collection of RNA variant scans (doi:10.7554/elife.80360):

B1: Hairpin Ribozyme (parent)
chain: GUCCUCUUUCACGUGCGCGUGAAAGAGAGAAGUGAACCAGAGAAACACACGUUGUGGUAUAUUACCUGGUA

Variants of: B1
Assay: self-cleavage, relative activity (ratio to wild type); higher = more cleavage; co-transcriptional

Variant | self-cleavage
C12U C46U | 0.174
C12U U20G | 0.76
C12G U67C | 0.233
G13C U70C | 0.716
G13C U70A | 0.475
C12G A45C | 0.0684
C12U U70A | 0.746
C12U U70G | 0.659
C12G A49U | 0.12
C12G G42U | 0.343
G13U A44G | 0.199
G13U A44C | 0.0986
C12A C65A | 0.787
G13C A31C | 0.227
G13C A31G | 0.515
C12U A30U | 0.136
C12U A30C | 0.193
G13U C37G | 0.384
G13U C37A | 0.249
G13U C37U | 0.443
G13C G40C | 0.11
G13C G40A | 0.299
G13C A22G | 0.496
C12U G56U | 0.193

Variant | self-cleavage
C12U G56C | 0.137
C12A A23C | 0.762
G13C A23C | 0.364
G13C A23U | 0.491
G13C A23G | 0.373
C12U U62C | 0.27
C12U G13U | 0.828
C12U G13C | 0.791
G13C A59G | 0.13
G13C C38U | 0.384
G13C C38G | 0.179
G13C C38A | 0.2
C12U A23C | 0.93
C12G C65G | 0.174
C12G C65U | 0.28
G13C A26U | 0.406
G13A A45G | 0.161
C12U A31C | 0.204
G13A A23C | 0.571
G13A A44G | 0.125
G13A U67G | 0.18
G13A G27A | 0.462
G13A G27C | 0.217
G13A A59G | 0.104

Variant | self-cleavage
C12U A49U | 0.159
C12U A49C | 0.169
G13C G25U | 0.436
G13C G25A | 0.448
C12A A64U | 0.176
C12A G57A | 0.255
C12A G57U | 0.172
G13A U55C | 0.214
C12G U70A | 0.728
G13A A43U | 0.144
G13A A61U | 0.136
G13A G68A | 0.275
G13A A30G | 0.104
G13A A49U | 0.18
G13A A49G | 0.5
A11U G69A | 0.402
G13C G56A | 0.137
C12U U60G | 0.504
C12U U60C | 1.02
C12A U33G | 0.175
C12U A36U | 0.584
C12U A36G | 1.17
A11U U62A | 0.148
G13C | 0.681

Variant | self-cleavage
G13U | 0.763
G13A | 0.87
A11U U60A | 0.708
A11U U60G | 0.509
C12G U58A | 0.734
G13A C48A | 0.144
G13A C48G | 0.118
G13A C48U | 0.22
C12A A45C | 0.137
A11U G56C | 0.087
G13A C37A | 0.373
A11U U63A | 0.22
G13A A47U | 0.172
G13A U63C | 0.175
G13A U63G | 0.0786
C12G G69U | 0.259
C12G G69A | 0.284
G13A G54U | 0.42
G13A G54C | 0.346
C12U G68C | 0.191
C12A G19U | 0.995
C12A G19A | 0.876
C12G | 0.827
C12U | 0.887

Variant | self-cleavage
C12A | 0.805
G13C A30U | 0.14
C12U U55A | 0.191
C12G A22C | 0.518
C12A C18A | 0.812
C12G G54A | 0.543
C12G U52G | 0.718
C12A C16U | 0.977
C12A C16G | 0.671
C12G A44U | 0.147
C12G A44G | 0.156
C12U G42C | 0.265
C12G A30G | 0.247
C12G A30C | 0.0578
C12G A30U | 0.147
C12A A47C | 0.329
G13A A41U | 0.964
G13A A41G | 0.777
G13A U20C | 0.902
C12G C16A | 0.84
C12G C16G | 0.806
G13U A36C | 0.537
C12U A47G | 0.131
C12U A47U | 0.194

Variant | self-cleavage
C12A A24U | 0.584
G13C G21U | 0.49
G13C G27C | 0.161
C12U A22G | 0.748
C12U A22U | 0.759
G13U A61U | 0.181
C12U C16U | 0.916
G13C A64G | 0.448
G13C A64U | 0.128
G13C G57U | 0.164
C12G G51U | 0.663
C12G G51C | 0.753
C12G G51A | 0.965
C12A A28U | 0.34
C12U U63G | 0.162
C12U G27C | 0.15
G13C U53G | 0.245
G13U C16G | 0.655
G13A G15U | 1.1
G13A G15C | 0.753
G13C C16G | 0.407
G13A C38G | 0.0904
G13A C38A | 0.154
C12G G68A | 0.233

Variant | self-cleavage
C12G G68C | 0.144
G13C C37G | 0.183
C12A A41G | 0.736
C12G G32U | 0.179
C12G G34C | 1.15
C12A G69A | 0.289
C12U G57C | 0.222
C12A A43C | 0.257
C12A A43G | 0.116
C12U C37G | 0.27
C12U U53C | 0.862
C12A U63C | 0.2
G13U A39G | 0.273
G13A C65G | 0.238
G13A A64C | 0.178
G13A A64U | 0.258
C12G G15A | 0.881
C12G A39G | 0.29
G13A U53G | 0.597
G13A C66A | 0.173
G13A C66U | 0.419
G13A U62G | 0.106
C12A U55C | 0.208
C12U G15A | 0.687

Variant | self-cleavage
C12U G15U | 1.08
C12A C48A | 0.162
C12A C48G | 0.137
C12A G51U | 0.933
C12A G51C | 0.78
C12A G25U | 0.559
C12A G25A | 0.486
G13A A24U | 0.627
C12U G40U | 0.191
G13U A22U | 0.622
G13U A22C | 0.533
C12G A23C | 0.511
C12G A23G | 0.853
C12G A23U | 0.753
G13U A49G | 0.483
C12G G40A | 0.266
C12A U70G | 0.673
C12A U70C | 0.722
G13A A35G | 0.732
G13A A35U | 0.78
C12A G54U | 0.53
C12A G54C | 0.389
C12G G25C | 0.489
C12U A41G | 0.676

Variant | self-cleavage
C12G C38U | 0.392
C12U G29A | 0.164
C12G U60C | 1.04
G13U A71U | 0.684
G13A A22C | 0.607
G13A A22G | 0.676
C12A G34A | 1.21
A11U U33A | 0.0768
C12G C50A | 0.306
C12G C37A | 0.159
C12G G13A | 0.851
C12U A45U | 0.163
C12U A45G | 0.162
C12U A44U | 0.0952
C12U A44G | 0.201
A11U U14G | 0.536
A11U U14C | 0.964
C12A U62C | 0.0739
C12U C66G | 0.126
C12U C66U | 0.514
G13A G19U | 0.825
G13A G19C | 0.804
C12A C66U | 0.418
G13A G17C | 0.507

Variant | self-cleavage
G13A G17A | 0.747
G13U A23C | 0.557
C12G G57C | 0.165
G13C U63C | 0.111
G13C U63G | 0.164
C12G G19C | 1.24
C12G G19A | 0.808
C12G G19U | 0.997
C12U A24U | 0.802
G13U A59C | 0.161
G13U A59U | 0.181
G13A G57U | 0.205
C12G A28G | 0.889
G13A A71G | 0.912
G13A A71C | 1.36
C12G C46A | 0.191
C12G C46G | 0.17
G13A U60G | 0.374
G13A U60A | 0.714
C12U G19U | 0.954
G13C U60G | 0.479
G13A A39G | 0.279
G13U A45U | 0.136
C12G U62A | 0.176

Variant | self-cleavage
C12G U62C | 0.235
G13C C48U | 0.108
C12G U20C | 1.01
C12G A24G | 0.778
C12G A24C | 0.613
G13C A61G | 0.164
C12A U52G | 0.757
C12A C46G | 0.161
C12U A35G | 0.938
C12U A35C | 0.975
C12A A36C | 0.523
G13U A41G | 0.752
G13U A41U | 1.15
C12U A39U | 0.45
C12U A39C | 0.407
G13C G15A | 0.74
G13C G15C | 0.541
C12U G34U | 1.18
C12U U67C | 0.237
C12A A35U | 0.635
C12U C38G | 0.235
G13C A35G | 0.801
G13C A35U | 0.552
G13C U62A | 0.143

Variant | self-cleavage
G13C U62G | 0.185
G13A G32C | 0.136
G13A G32A | 0.0965
G13U A47C | 0.326
G13U A47U | 0.129
G13U A47G | 0.143
G13A G56C | 0.119
G13C G51U | 0.61
C12G A41G | 0.573
C12U A43U | 0.22
C12U A43G | 0.0708
G13C C50U | 0.281
G13C C50A | 0.137
G13U A30C | 0.166
C12G A47C | 0.417
A11U U52C | 0.891
A11U U52A | 0.85
G13C A44G | 0.127
G13U C38G | 0.136
C12U C48U | 0.126
G13C A71U | 0.41
C12G G27A | 0.29
C12G G27U | 0.261
C12U U52A | 0.92

Variant | self-cleavage
C12U U52C | 1.1
C12U U52G | 0.875
C12A C37A | 0.27
C12A C37G | 0.259
G13U C18G | 0.722
G13A U70C | 0.615
G13A G40U | 0.129
G13C G34C | 1.1
G13C G34U | 1.1
G13A G34C | 1.33
C12G G21C | 0.47
G13U A43G | 0.186
G13U A43U | 0.127
G13C A45G | 0.178
G13C A45U | 0.0506
G13C A45C | 0.145
G13C A28C | 0.343
G13A C50U | 0.373
C12U G32A | 0.134
G13A C18A | 1.02
C12G G56U | 0.124
C12G G56A | 0.14
G13A G25U | 0.512
C12U G54U | 0.58

Variant | self-cleavage
C12A G40A | 0.237
G13C G29U | 0.0913
A11U U53C | 0.975
A11U U53G | 0.69
C12A A22G | 0.692
C12G G17U | 0.627
G13C U52G | 0.76
G13C U52C | 0.646
C12A U53C | 0.939
G13C A47G | 0.21
G13C A47C | 0.205
G13C A47U | 0.109
C12G A59U | 0.134
G13U A24G | 0.681
A11U U58G | 0.65
A11U U58A | 0.523
G13A C46U | 0.221
G13C A24U | 0.735
A11U U55A | 0.154
G13U C46A | 0.193
C12U A61G | 0.255
C12U A61U | 0.133
